Source: article doi:10.1101/2022.03.07.483330 (bioRxiv, 2022)

Assays:
[1] = target: human wild-type DLL4 (N-EGF5, residues 27-400) (human, UniProt Q9NR61 27-400); assay: SPR
DLL4.v2 (N-EGF5) = DLL4.v2 (N-EGF5) (human, UniProt Q9NR61 27-400, N257P | T271L | F280Y | S301R | Q305P); assay: SPR
DLL4.v2 (N-EGF5), sequence (Q9NR61 27-400 N257P/T271L/F280Y/S301R/Q305P): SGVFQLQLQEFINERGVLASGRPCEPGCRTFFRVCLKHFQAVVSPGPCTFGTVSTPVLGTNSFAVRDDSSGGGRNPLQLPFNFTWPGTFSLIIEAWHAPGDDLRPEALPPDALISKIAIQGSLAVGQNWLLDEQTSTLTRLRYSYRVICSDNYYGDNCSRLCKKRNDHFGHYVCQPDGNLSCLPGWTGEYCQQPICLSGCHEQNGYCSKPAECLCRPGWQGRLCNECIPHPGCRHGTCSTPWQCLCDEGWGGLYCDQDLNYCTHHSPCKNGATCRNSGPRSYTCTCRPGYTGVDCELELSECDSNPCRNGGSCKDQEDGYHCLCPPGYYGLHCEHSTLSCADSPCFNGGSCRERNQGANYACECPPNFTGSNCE

human wild-type DLL4 (N-EGF5, residues 27-400), sequence (Q9NR61 27-400): as the sequence (Q9NR61 27-400 N257P/T271L/F280Y/S301R/Q305P) above, with P231N, L245T, Y254F, R275S, P279Q counted along it

binding result [1]	binding result (DLL4.v2 (N-EGF5))	Binder
binds	binds	mouse Notch1 (EGF6-13, residues 221-526), biotinylated (domain or fragment, UniProt Q01705 221-526, looked up, biotin on the C-terminal BAP-tag (BirA)) PCSPSPCQNGGTCRPTGDTTHECACLPGFAGQNCEENVDDCPGNNCKNGGACVDGVNTYNCRCPPEWTGQYCTEDVDECQLMPNACQNGGTCHNTHGGYNCVCVNGWTGEDCSENIDDCASAACFQGATCHDRVASFYCECPHGRTGLLCHLNDACISNPCNEGSNCDTNPVNGKAICTCPSGYTGPACSQDVDECALGANPCEHAGKCLNTLGSFECQCLQGYTGPRCEIDVNECISNPCQNDATCLDQIGEFQCICMPGYEGVYCEINTDECASSPCLHNGHCMDKINEFQCQCPKGFNGHLCQ
binds	binds	human Notch3 (EGF5-12, residues 197-505), biotinylated (domain or fragment, UniProt Q9UM47 197-505, looked up, biotin on the C-terminal BAP-tag (BirA)) PAVPCAPSPCRNGGTCRQSGDLTYDCACLPGFEGQNCEVNVDDCPGHRCLNGGTCVDGVNTYNCQCPPEWTGQFCTEDVDECQLQPNACHNGGTCFNTLGGHSCVCVNGWTGESCSQNIDDCATAVCFHGATCHDRVASFYCACPMGKTGLLCHLDDACVSNPCHEDAICDTNPVNGRAICTCPPGFTGGACDQDVDECSIGANPCEHLGRCVNTQGSFLCQCGRGYTGPRCETDVNECLSGPCRNQATCLDRIGQFTCICMAGFTGTYCEVDIDECQSSPCVNGGVCKDRVNGFSCTCPSGFSGSTCQ

Continued, binder first:

Binder	binding result [1]	binding result (DLL4.v2 (N-EGF5))
human Notch2 (EGF6-13, residues 221-530), biotinylated (domain or fragment, UniProt Q04721 221-530, looked up, biotin on the C-terminal BAP-tag (BirA)) LYVPCAPSPCVNGGTCRQTGDFTFECNCLPGFEGSTCERNIDDCPNHRCQNGGVCVDGVNTYNCRCPPQWTGQFCTEDVDECLLQPNACQNGGTCANRNGGYGCVCVNGWSGDDCSENIDDCAFASCTPGSTCIDRVASFSCMCPEGKAGLLCHLDDACISNPCHKGALCDTNPLNGQYICTCPQGYKGADCTEDVDECAMANSNPCEHAGKCVNTDGAFHCECLKGYAGPRCEMDINECHSDPCQNDATCLDKIGGFTCLCMPGFKGVHCELEINECQSNPCVNNGQCVDKVNRFQCLCPPGFTGPVCQ	binds	binds
human Notch4 (EGF7-12, residues 276-511), biotinylated (domain or fragment, UniProt Q99466 276-511, looked up, biotin on the C-terminal BAP-tag (BirA)) NPDNCVSHQCQNGGTCQDGLDTYTCLCPETWTGWDCSEDVDECETQGPPHCRNGGTCQNSAGSFHCVCVSGWGGTSCEENLDDCIAATCAPGSTCIDRVGSFSCLCPPGRTGLLCHLEDMCLSQPCHGDAQCSTNPLTGSTLCLCQPGYSGPTCHQDLDECLMAQQGPSPCEHGGSCLNTPGSFNCLCPPGYTGSRCEADHNECLSQPCHPGSTCLDLLATFHCLCPPGLEGQLCE	binds	binds
